From publication PMC6023178, “Crystal structure of the C-terminal four-helix bundle of the potassium channel KCa3.1” (PLoS ONE, 2018) come the findings set out here.

Square brackets hold non-standard residues; d marks the D form. Ends that are not written are not given here. SeMet = C[Se]CC[C@H](N)C(=O)O

Series [1] concerns the molecule itself. Briefly: crystal structure; native KCa3.1-CC crystallised without copper (apo); 0.1 M imidazole (pH 6.5), 1.0 M sodium acetate; 1.75 Å, molecular replacement, only partially refined.
Series [2] concerns the molecule itself. The experiment in a line: crystal structure; SeMet-containing KCa3.1-CC crystallised with 3 mM CuCl2; 0.1 M imidazole (pH 6.5), 1.0 M sodium acetate; space group P4212, 1.75 Å; four-helix bundle generated by the crystallographic four-fold axis.

B1: native KCa3.1-CC (C-terminal coiled-coil region of human KCa3.1, residues 376-415) (domain or fragment, UniProt O15554 376-415, looked up)
chain: MILYDLQQNLSSSHRALEKQIDTLAGKLDALTELLSTALG
notes: KCa3.1 (SK4, IK1), human, C-terminal coiled-coil region, residues 376-415; Crystallised without copper (apo); also called native, apo KCa3.1-CC; source: E. coli BL21-Gold(DE3)pLysS, purified (GST-trap, thrombin cleavage, Superdex 75); not shown: GST, N-terminal, cleaved
For B1, the binding result in series [1] was “binds”.

B2: SeMet-containing KCa3.1-CC (C-terminal coiled-coil region of human KCa3.1, residues 376-415) (domain or fragment, UniProt O15554 376-415, looked up)
chain: [SeMet]ILYDLQQNLSSSHRALEKQIDTLAGKLDALTELLSTALG
notes: KCa3.1 (SK4, IK1), human, C-terminal coiled-coil region, residues 376-415; residues 376-414 are in the atomic model; Crystallised in the presence of 3 mM CuCl2; a Cu(II) ion is coordinated by the four copies of His389; also called SeMet KCa3.1-CC; SeMet SK4-CC (w/copper); source: E. coli B834(DE3), PASM-5052 auto-induction medium, purified (GST-trap, thrombin cleavage, Superdex 75); not shown: …
As a reminder, the stoichiometry N is a count of units in the complex or per binding partner. In the case of B2, in series [2], the “stoichiometry N” value was found to be 4.
